The supplement of paper PMC10567573

B1: PLAGL1 (parent)
chain: DPNKMAFGCEECGKKYNTMLGYKR
B2: ZNF207 (parent)
chain: FPSAGQAQAAVQGPVGTDFKPLNS

Variants of: B1
Test: protein stability index of a GFP-peptide fusion (GPS, HEK-293T) (PSI 1-6); higher = more stable
Conditions: c terminus: a fixed tail appended
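Note: lentivirally expressed fusions sorted by FACS into six bins by GFP to DsRed ratio, PSI derived from sequencing read proportions per bin multiplied by bin number.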

Variant | protein stability index
R24P | 2.87
R24T | 2.93
R24S | 3.3
R24N | 3.27
R24D | 3.65
R24W | 1.86
R24I | 2.05
R24Y | 2.61
R24E | 4.57
R24L | 2.05
R24A | 3.02
R24C | 2.58
R24K | 4.02
R24H | 3.66
R24Q | 3.34
R24M | 2.78
R24V | 2.52
R24F | 2.42
R24G | 2.74
M19Q | 2.94
M19N | 2.37
M19V | 2.14
M19T | 2.74
M19P | 2.27
M19Y | 2.49
M19W | 2.11

Variant | protein stability index
M19R | 2.99
M19S | 2.83
M19L | 2.82
G21V | 1.81
G21K | 3.15
G21C | 3.09
G21A | 3.01
G21H | 2.56
G21I | 2.26
G21R | 2.94
G21E | 3.33
G21Y | 2.06
G21F | 1.85
G21P | 2.64
G21T | 2.08
G21Q | 2.48
G21N | 2.55
G21M | 2.06
G21D | 3.13
G21W | 1.95
G21S | 2.87
Y22T | 2.24
Y22C | 3.69
Y22L | 3.15
Y22S | 3.47
Y22M | 3.01

Variant | protein stability index
Y22H | 2.18
Y22I | 2.8
Y22N | 2.78
Y22G | 3.07
Y22A | 2.53
Y22P | 2.02
Y22V | 2.94
Y22Q | 2.72
Y22W | 2.9
Y22D | 3.5
Y22E | 3.26
Y22K | 3.72
Y22F | 1.92
Y22R | 3.33
L20W | 2.73
L20N | 2.26
L20C | 2.59
L20Q | 2.33
L20I | 2.54
L20Y | 2.1
L20S | 2.59
L20G | 2.46
L20P | 3.11
L20R | 3.46
L20E | 3.51
L20A | 2.23

Variant | protein stability index
L20D | 2.82
L20M | 2.72
L20H | 3.08
L20F | 2.18
L20K | 3.26
L20V | 2.7
K23C | 2.21
K23D | 2.81
K23W | 1.35
K23T | 2.34
K23R | 2.35
K23F | 2.03
K23N | 2.42
K23G | 2.21
K23P | 2.31
K23M | 1.58
K23L | 2.73
K23V | 1.79
K23H | 1.98
K23S | 2.17
K23Y | 2.22
K23A | 1.98
K23I | 2.95
K23E | 2.15

Variants of: B2
Test: as above
Conditions: c terminus: a fixed tail appended

Variant | protein stability index
A4C | 2.52
A4D | 4.68
A4W | 2.62
A4V | 3.9
A4T | 4.39
A4Q | 3.77
A4E | 4.58
A4P | 4.16
A4F | 3.82
A7L | 2.27
A7D | 3.98
A7F | 2.17
A7I | 3.15
A7V | 3.36
A7C | 2.47
A7P | 3.51
A7R | 3.26
A7E | 3.94
A7W | 2.44
V15P | 3.63
V15T | 3.7
V15M | 3.01
V15D | 3.49
V15Y | 2.93

Variant | protein stability index
V15I | 3.84
V15F | 2.73
V15E | 3.77
V15H | 3.29
V15W | 1.75
V15L | 3.44
S24W | 1.89
S24A | 3.36
S24E | 3.77
S24T | 3.37
S24L | 3.12
S24P | 3.54
S24N | 3.92
S24Y | 2.63
S24I | 2.98
S24Q | 3.43
S24V | 3.19
S24G | 3.15
S24K | 3.71
F1W | 4.75
F1D | 5.56
F1E | 4.98
F1R | 5.18
F1V | 4.92

Variant | protein stability index
F1K | 4.65
F1H | 4.89
F1L | 5.03
F1A | 5.04
F1P | 4.82
F1G | 4.88
K20A | 3.2
K20C | 3.85
K20Q | 3.47
K20Y | 2.79
K20P | 3.35
K20S | 3.34
K20V | 3.25
K20M | 3.33
K20H | 3.49
K20G | 3.77
K20F | 2.35
L22Y | 3.61
L22C | 3.35
L22K | 3.58
L22A | 3.67
L22W | 2.69
L22D | 4.46
L22S | 3.95

Variant | protein stability index
L22E | 3.81
L22H | 4.15
T17D | 4.02
T17P | 3.3
T17N | 3.65
T17C | 3.12
T17E | 3.9
T17V | 2.81
T17F | 3.05
T17A | 3.03
T17M | 3.03
T17W | 2.25
P14C | 3.04
P14G | 3.54
P14D | 4.01
P14F | 2.55
P14A | 3.47
P14R | 3.36
P14N | 3.68
P14S | 3.34
P14I | 2.98
P14E | 3.92
A9I | 2.86
A9N | 3.83

Variant | protein stability index
A9V | 2.93
A9Q | 4.06
A9E | 3.74
A9K | 3.52
A9F | 2.02
A9T | 2.99
A9G | 3.13
A9L | 2.62
A9Y | 2.13
F19L | 3.91
F19K | 4.17
F19E | 4.06
F19D | 4.4
F19H | 3.77
F19R | 4.11
D18C | 2.65
D18W | 2.51
D18K | 2.99
D18R | 2.96
D18M | 2.85
D18G | 2.8
D18I | 2.67
D18F | 2.34
D18H | 2.74

Variant | protein stability index
D18L | 2.32
Q6H | 3.58
Q6Y | 1.94
Q6A | 3.72
Q6T | 3.96
Q6S | 3.65
P21V | 2.87
P21I | 2.87
P21R | 3.77
P21G | 3.13
P21N | 3.62
P21Q | 3.88
P21Y | 3.31
P2M | 3.93
P2W | 3.65
P2C | 2.7
P2D | 4.73
P2I | 2.89
P2E | 4.71
P2L | 3.41
P2G | 4.14
P2V | 1.97
P2S | 3.16
P2A | 3.46

Variant | protein stability index
A10G | 3.72
A10C | 2.75
A10Q | 3.42
A10M | 3.18
A10R | 3.05
A10W | 2.24
A10D | 3.69
A10E | 3.8
S3D | 4.27
S3L | 4.05
S3K | 3.17
S3H | 3.35
S3C | 2.61
S3R | 2.83
S3M | 3.43
S3E | 3.93
G16S | 3.48
G16H | 3.52
G16C | 3.37
G16T | 3.64
G16F | 3.17
G16P | 3.42
G16I | 3.27
G16N | 3.65

Variant | protein stability index
G16D | 3.75
G16K | 3.12
G16E | 3.94
Q8S | 3.68
Q8I | 2.76
Q8N | 3.57
Q8F | 1.48
Q8L | 2.11
Q8A | 4.04
Q8E | 4.04
Q8T | 3.47
Q8C | 3.23
Q8H | 3.35
Q12I | 2.54
Q12T | 3.61
Q12A | 3.13
Q12K | 3.38
Q12Y | 2.46
Q12S | 3.36
G5F | 1.51
G5C | 2.75
G5T | 4.11
G5I | 4.11
G5Q | 4.19

Variant | protein stability index
G5R | 3.78
G5V | 3.96
G5H | 3.79
G5E | 4.17
G5K | 4.23
G5P | 4.07
G5Y | 1.82
V11F | 2.58
V11N | 3.32
V11C | 3.1
V11G | 3.72
V11W | 2.38
V11R | 4.12
V11T | 3.58
V11K | 3.45
V11A | 3.73
V11M | 3.36
N23D | 3.55
N23M | 3.17
N23I | 3.15
N23Q | 3.22
N23H | 3.44
N23Y | 2.68
N23G | 3.07

Variant | protein stability index
N23A | 2.88
N23L | 2.71
N23K | 3.48
N23V | 2.93
N23T | 3.45
N23C | 3.37
G13E | 3.79
G13I | 3.22
G13T | 3.52
G13K | 3.76
G13R | 3.5
G13D | 3.74
G13Y | 3.12
G13M | 3.38
G13L | 3.69
G13Q | 3.09
